# Assay results reported in patent publication US20060293243A1, “Stable, buffered, pharmaceutical compositions including motilin-like peptides” (priority 2005, published 2006).
# Non-standard residues stand in square brackets, D forms with d. Me3N+ = N-terminal trimethylammonium
# Columns and labels:
# Type in all cases: physicochemical
# [1] = Stability of motilin-like peptide following autoclaving and storage (HPLC, undegraded peptide remaining); conditions: 30 μg/ml in 10 mM sodium acetate buffer, pH 5.0; Type I glass vials; autoclaved at 121° C. for 15 minutes; storage for 3 months at 55° C.
# Experimental: The motilin-like peptide of SEQ ID NO.: 1 was dissolved at a concentration of 30 μg/ml in 10 mM sodium acetate buffer, pH 5.0. Samples of the peptide solution stored in Type I glass vials were autoclaved at 121° C. for 15 minutes and the autoclaved samples were incubated at 5° C., 25° C., 40° C., or 55° C. The potency of the peptide following storage at each temperature was measured over time by testing samples after incubation of one week, two weeks, three weeks, one month and three months. Potency was determined by using HPLC to measure the amount of undegraded peptide remaining in each sample.
# It will be appreciated by those skilled in the art that stability data obtained at such elevated temperatures (i.e., accelerated storage conditions) may be used to predict stability at lower, more typical storage temperatures over extended periods of time.
# [2] = Stability of lyophilized formulations of motilin-like peptide compositions (HPLC after reconstitution in water); conditions: 30 μg/ml in 10 mM citrate buffer, 1% w/v sucrose, pH 6.0, stored in 20 ml vial at 40° C. for several months, reconstituted in water
# Experimental: The motilin-like peptide including SEQ ID NO.: 1 was dissolved at a concentration of 30 μg/ml in 10 mM citrate buffer and 1% w/v of sucrose (bulking agent) at pH 6.0. The composition was lyophilized by standard techniques and stored in a 20 ml vial at 40° C. The potency of the motilin-like peptide was measured at the time intervals indicated in FIG. 5, by reconstituting the composition in water. Potency was determined by using HPLC to measure the amount of undegraded peptide remaining in each sample. […] Again, it will be appreciated by those skilled in the art that the stability of pharmaceutical compositions at elevated temperatures, such as 40° C. as in FIG. 5, may serve as the basis of prediction of stability for longer periods at more typical storage temperatures, such as approximately 20° C.-25° C. or 4° C.-8° C., for example.
# [3] = Stability profile of aqueous composition stored in Schott Type 1 glass vials (FIGS. 3 and 4); conditions: Schott Type 1 vials
# Excerpt: Some plastics have also proven to be effective in assisting in the stabilization of the peptide composition. In this regard, preferred plastics are cyclic olefin copolymers, available, for example, from West Pharmaceuticals under the product name CZ resin vials, or from Schott under the product name TopPac vials, or from Alcan packaging under the product name Ticona Topas serum vials. The compositions of the present invention may also be stored in PVC, as well as non-PVC flexible bags. When stored in the above described glass or plastic containers, the above-described storage times at the above-described storage temperatures can be achieved, although for storage periods of at least 18 months, Type I Plus (vapor treated silicon) vials and Type I Plus glass ampules are preferred. […] It will be appreciated by those skilled in the art that the measured stability of pharmaceutical compositions at elevated temperatures, such as 40° C. or higher, may serve as the basis of prediction of stability for longer periods at more typical storage temperatures, such as 20°-25° C. or 4°-8° C., for example. Such “accelerated storage” studies are common in the field of the present invention.
# [4] = Degradation during storage as a function of composition pH; conditions: pH approximately 3 to 9, most preferably approximately 4.8-5.2
# Experimental: In one embodiment, where the composition is provided in a “ready-to-use” form, the motilin-like peptide is dissolved in a buffer solution to provide an aqueous composition. […] More preferably, the pH of the pharmaceutical compositions is between approximately 4 and 6, more preferably 4.5 and 5.5 and, most preferably, between approximately 4.8-5.2. At these pH levels, the peptide of SEQ. ID. […] (The preferred pH of the composition may also be determined, in part, based on whether the composition is prepared as an aqueous composition or a lyophilized formulation, discussed below.)
substance,measurement,setting,value
"(Me3N) ^+Phe-Val-Pro-Ile-Phe-Thr-Tyr-Gly-Glu-Leu-Gln-D-Arg-Leu-Lys-NH2 ({Me3N+}-FVPIFTYGELQ[dR]LK-NH2) [SEQ ID NO.: 1, synthetic motilin-like peptide receptor agonist]",potency retained (amount of undegraded peptide remaining by HPLC),[1],greater than 90%
same,potency retained (amount of undegraded peptide remaining by HPLC),[2],greater than 90%
same,stability (maintenance of high levels of potency),"[3]; 30 μg/ml, several months at 5° C. to 55° C. (FIG. 4)",demonstrated stability
same,stability (maintenance of high levels of potency),"[3]; approximately 5 μg/ml, several months at 5° C. to 55° C. (FIG. 3)",demonstrated stability
same,degradation during storage,[4],only minimal degradation
